According to patent US20100009361:

Target: HA-tagged RAS

B1: full-length, HA-tagged wild-type SOS1 (protein)
chain: MQAQQLPYEFFSEENAPKWRGLLVPALKKVQGQVHPTLESNDDALQYVEELILQLLNMLCQAQPRSASDVEERVQKSFPHPIDKWAIADAQSAIEKRKRRNPLSLPVEKIHPLLKEVLGYKIDHQVSVYIVAVLEYISADILKLVGNYVRNIRHYEITKQDIKVAMCADKVLMDMFHQDVEDINILSLTDEEPSTSGEQTYYDLVKAFMAEIRQYIRELNLIIKVFREPFVSNSKLFSANDVENIFSRIVDIHELSVKLLGHIEDTVEMTDEGSPHPLVGSCFEDLAEELAFDPYESYARDILRPGFHDRFLSQLSKPGAALYLQSIGEGFKEAVQYVLPRLLLAPVYHCLHYFELLKQLEEKSEDQEDKECLKQAITALLNVQSGMEKICSKSLAKRRLSESACRFYSQQMKGKQLAIKKMNEIQKNIDGWEGKDIGQCCNEFIMEGTLTRVGAKHERHIFLFDGLMICCKSNHGQPRLPGASNAEYRLKEKFFMRKVQINDKDDTNEYKHAFEIILKDENSVIFSAKSAEEKNNWMAALISLQYRSTLERMLDVTMLQEEKEEQMRLPSADVYRFAEPDSEENIIFEENMQPKAGIPIIKAGTVIKLIERLTYHMYADPNFVRTFLTTYRSFCKPQELLSLIIERFEIPEPEPTEADRIAIENGDQPLSAELKRFRKEYIQPVQLRVLNVCRHWVEHHFYDFERDAYLLQRMEEFIGTVRGKAMKKWVESITKIIQRKKIARDNGPGHNITFQSSPPTVEWHISRPGHIETFDLLTLHPIEIARQLTLLESDLYRAVQPSELVGSVWTKEDKEINSPNLLKMIRHTTNLTLWFEKCIVETENLEERVAVVSRIIEILQVFQELNNFNGVLEVVSAMNSSPVYRLDHTFEQIPSRQKKILEEAHELSEDHYKKYLAKLRSINPPCVPFFGIYLTNILKTEEGNPEVLKRHGKELINFSKRRKVAEITGEIQQYQNQPYCLRVESDIKRFFENLNPMGNSMEKEFTDYLFNKSLEIEPRNPKPLPRFPKKYSYPLKSPGVRPSNPRPGTMRHPTPLQQEPRKISYSRIPESETESTASAPNSPRTPLTPPPASGASSTTDVCSVFDSDHSSPFHSSNDTVFIQVTLPHGPRSASVSSISLTKGTDEVPVPPPVPPRRRPESAPAESSPSKIMSKHLDSPPAIPPRQPTSKAYSPRYSISDRTSISDPPESPPLLPPREPVRTPDVFSSSPLHLQPPPLGKKSDHGNAFFPNSPSPFTPPPPQTPSPHGTRRHLPSPPLTQEVDLHSIAGPPVPPRQSTSQHIPKLPPKTYKREHTHPSMHRDGPPLLENAHSS
Question: With B1 as the protein, how does the RAS activation read?
Answer: When wild type SOS1 was expressed, RAS activation was low in serum-deprived cells, then increased rapidly after EGF stimulation and finally returned toward basal levels by 30 min
